Consider four molecules from article PMC10063603, “Release of frustration drives corneal amyloid disaggregation by brain chaperone” (Communications Biology, 2023).

Sequences and labels used below:
B1: TGFBIp G623R peptide (residues 611-633), recombinant, uniformly 13C,15N-labelled, as amyloid fibril (peptide)
peptide: EPVAEPDIMATNRVVHVITNVLQ
modifications: also: uniformly 13C,15N-labelled
notes: also called double-labeled G623R fibrils; 13C-15N labeled G623R fibril; source: E. coli BL21 (DE3), His-tag-BEAK-tag-TEV fusion, purified (Ni-NTA, TEV cleavage, reverse phase-HPLC); fibrils seeded with 5% (w/v) synthetic G623R seeds in 20 mM TRIS, 37 °C; not shown: His-tag, N-terminal, cleaved; BEAK tag, N-terminal, cleaved
B2: TGFBIp G623R peptide (residues 611-633 of the 4th FAS-1 domain), synthetic, as amyloid fibril (peptide)
peptide: EPVAEPDIMATNRVVHVITNVLQ
notes: Assayed as preformed amyloid fibril (many copies); also called G623R fibril; TGFBIp G623R fibril; source: synthetic peptide, bought: Synpeptide Co Ltd; fibrils formed in PBS at 37 °C, 180 rpm
B3: TGFBIp A620D peptide (residues 611-633), recombinant, uniformly 13C,15N-labelled, as amyloid fibril (peptide, UniProt Q15582 611-633, looked up)
peptide: EPVAEPDIMDTNGVVHVITNVLQ
modifications: also: uniformly 13C,15N-labelled
notes: also called A620D fibrils; source: E. coli BL21 (DE3), His-tag-BEAK-tag-TEV fusion, purified (Ni-NTA, TEV cleavage, reverse phase-HPLC); not shown: His-tag, N-terminal, cleaved; BEAK tag, N-terminal, cleaved
B4: human WT lipocalin-type prostaglandin D synthase (L-PGDS) (natural protein)
chain: APEAQVSVQPNFQQDKFLGRWFSAGLASNSSWLREKKAALSMCKSVVAPATDGGLNLTSTFLRKNQCETRTMLLQPAGSLGSYSYRSPHWGSTYSVSVVETDYDQYALLYSQGSKGPGEDFRMATLYSRTQTPRAELKEKFTAFCKAQGFTEDTIVFLPQTDKCMTEQ
notes: Lipocalin-type prostaglandin D synthase (L-PGDS), human, wild type; 15N-labelled for the solution NMR; loaded with heme for the cryo-EM micrographs; unlabelled for ssNMR and ThT assays; also called WT L-PGDS; source: E. coli Rosetta 2 DE3 (pNIC-CH vector), purified (Superdex 75 in PBS)

No end group written: not given here.

The target in series [1] is B4. The series is described as follows: solid-state NMR; unlabelled L-PGDS added to preformed 13C,15N-labelled G623R fibrils at 1:10; 1D 13C CP and 2D DARR (20 and 75 ms) compared with fibrils alone. To be noted: both partners purified.
Series [2] concerns the molecule itself. Put plainly: solid-state NMR; 13C,15N-labelled G623R fibrils packed in a 1.9 mm rotor; 18.8 T, MAS 17.857 kHz, 12 °C; NCA, NCO, DARR (20 and 75 ms), NCACX, NCOCX, CANCO; repeating unit calculated with CYANA.
Series [3] deals with B4. The series is described as follows: NMR titration; 2D 1H-15N HSQC of 15N-labelled L-PGDS without and with G623R fibrils at a molar ratio of 1:4 (L-PGDS: fibrils), 600 MHz. To be noted: both partners purified.
Series [4] deals with the molecule itself. Put plainly: cryo-EM structure; G623R fibrils, Titan Krios 300 kV, helical reconstruction in RELION-3.1, map at 4.9 Å; model built with the ssNMR restraints.
Series [5] concerns the molecule itself. The series is described as follows: solid-state NMR; 13C,15N-labelled A620D fibrils in a 1.9 mm rotor; 600 MHz, MAS 13333 Hz, 12 °C; NCA spectrum.
Series [6] addresses B2. The series is described as follows: cell-based or functional assay.
Series [7] concerns the target B2. Put plainly: cryo-EM micrographs; L-PGDS-heme complex (heme as contrast enhancer) mixed with G623R fibrils at 1:10; stoichiometry counted from the images. To be noted: both partners purified.

As to B1, the binding result in series [1] and in series [2] was “binds” in each case.
B2: the binding result in series [3] and in series [4] was “binds” throughout.
Turning to B3, the binding result in series [5] is “binds”.
On to B4, for which, in series [6], the “persistence length of G623R fibrils in cryo-EM micrographs without and with L-PGDS” value amounted to 4 fold; the “reduction of ThT intensity of preformed G623R fibrils after 24 h with L-PGDS at molar ratios of 1:2, 1:5 and 1:10 (52%, 27%, 19%)” value was found to be 52%. The stoichiometry N (in general, the number of molecules, sites or subunits per partner or assembly) in series [7] was found to be 7 peptides per L-PGDS.
